Where a chain is given by its changes, count along the chain named.
T1: cynomolgus SIRPα on cells (cynomolgus, UniProt P78324 31-373 (human entry))
T1 construct: also called cyno SIRPα-CHO; Cyno SIRPα-CHO-K1; not shown: Transmembrane and cytoplasmic region of cynomolgus SIRPα
T1 chain: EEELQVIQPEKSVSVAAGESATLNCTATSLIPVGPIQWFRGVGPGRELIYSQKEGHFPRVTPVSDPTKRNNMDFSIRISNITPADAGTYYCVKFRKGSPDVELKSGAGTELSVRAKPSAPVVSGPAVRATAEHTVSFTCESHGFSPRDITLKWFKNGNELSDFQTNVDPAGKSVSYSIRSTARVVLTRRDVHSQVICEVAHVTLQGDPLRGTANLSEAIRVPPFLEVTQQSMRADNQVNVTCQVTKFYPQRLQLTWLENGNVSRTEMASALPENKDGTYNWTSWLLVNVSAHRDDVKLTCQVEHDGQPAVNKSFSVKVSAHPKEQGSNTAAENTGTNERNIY

B1: SIRPAB-9 (antibody, human IgG1, kappa, V domains shown)
VH: QVQLVQSGAEVKKPGASVKVSCKASGYTFGGYGISWVRQAPGQGLEWMGWISAYGGETNYAQKLQGRVTMTTDTSTSTAYMELRSLRSDDTAVYYCAREAGSSWYDFDLWGRGTLVTVSS
VL: DIQMTQSPSSVSASVGDRVTITCRASQGISSWLAWYQQKPGKAPKLLIYAASNLQSGVPSRFSGSGSGTDFTLTISSLQPEDFATYYCQQGASFPITFGGGTKVEIKR
B2: SIRPAB-13 (antibody, human IgG1, kappa, V domains shown)
VH: B1 VH with G30H, G55S
VL: B1 VL
B3: SIRPAB-1 (antibody, human IgG1, kappa, V domains shown)
VH: QVQLQESGPGLVKPSQTLSLTCTVSGGSISSGGYYWSWIRQHPGKGLEWIGSIYYSGSTYYNPSLKSRVTISVDTSKNQFSLKLSSVTAADTAVYYCAREGYHSGMDVWGQGTTVTVSS
VL: DIQMTQSPSSLSASVGDRVTITCQASQDISNYLNWYQQKPGKAPKLLIYDASNLATGVPSRFSGSGSGTDFTFTISSLQPEDIATYYCQQFAYLPWTFGGGTKVEIKR
B4: SIRPAB-6 (antibody, human IgG1, kappa, V domains shown)
VH: QVQLQESGPGLVKPSQTLSLTCTVSGGSISSGGYYWSWIRQHPGKGLEWIGYIYYSGSTYYNPSLKSRVTISVDTSKNQFSLKLSSVTAADTAVYYCAREGLDGSYGSSAWGQGTLVTVSS
VL: B3 VL with M4L, A55E, W96Y
B5: SIRPAB-3 (antibody, human IgG1, kappa, V domains shown)
VH: B3 VH with Y34W, S37Q, S52T, Y60F
VL: B3 VL
B6: SIRPAB-7 (antibody, human IgG1, kappa, V domains shown)
VH: B4 VH with G33E, S37E, Y55S, S58F
VL: B3 VL with M4L, A55E, W96Y
B7: SIRPAB-4 (antibody, human IgG1, kappa, V domains shown)
VH: B3 VH with G33S, Y34P, S52Y, Y55A, S58F
VL: B3 VL
B8: SIRPAB-2 (antibody, human IgG1, kappa, V domains shown)
VH: B3 VH with Y34D, S37A, S52Y, Y55P, S58F
VL: B3 VL
B9: SIRPAB-5 (antibody, human IgG1, kappa, V domains shown)
VH: B3 VH with G33P, Y34A, S52T, Y60F
VL: B3 VL
B10: SIRPAB-8 (antibody, human IgG1, kappa, V domains shown)
VH: B1 VH with G30T, G31S, A53P, G55N, E57N
VL: B1 VL
B11: SIRPAB-18 (antibody, human IgG1, kappa, V domains shown)
VH: B3 VH with S52A, S58P, T59I, A98S, R99K
VL: B3 VL
B12: SIRPAB-20 (antibody, human IgG1, kappa, V domains shown)
VH: B3 VH with S52A, S58P, T59I, A98S, R99K
VL: B3 VL with N31D, S52D, A55E
B13: SIRPAB-19 (antibody, human IgG1, kappa, V domains shown)
VH: B3 VH with S52A, S58P, T59I, A98S, R99K
VL: B3 VL with Q27D, N31D, L54I, A55E, T56D

Biological target: T2, human SIRPγ-Fc (human)
T2 construct: a signal peptide may be part of the entry
Assay: BLI Octet, antigen-Fc on biosensor;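 for koff: antigen captured on the biosensor tip and then immersed in solutions of the test antibodies, which act as the analyte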

| Binder | Kd [nM] | koff [s⁻¹] | kon [M⁻¹ s⁻¹] |
| --- | --- | --- | --- |
| B1 | 1.37 | 0.00161 | 1.17e+06 |
| B2 | 4.12 | 0.00558 | 1.35e+06 |
| B3 | 1.43 |  |  |
| B4 | 8.36 |  |  |
| B5 | 0.118 |  |  |
| B6 | 0.1 | 0.0002 | 1.94e+06 |
| B7 | 0.144 |  |  |
| B8 | 0.14 |  |  |
| B9 | 0.154 |  |  |

Biological target: T3, human SIRPα v3-Fc (SIRPα3 extracellular domain fused to human IGHG1_Fc) (human, UniProt P78324 31-373; P0DOX5 223-449 = IgG part)
T3 construct: as m38; also called V3 (e.g. SIRPα3)
Assay: BLI Octet, antigen-Fc on biosensor;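 for koff: antigen captured on the biosensor tip and then immersed in solutions of the test antibodies, which act as the analyte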

| Binder | Kd [nM] | koff [s⁻¹] | kon [M⁻¹ s⁻¹] |
| --- | --- | --- | --- |
| B1 | 0.53 | 0.000515 | 980000 |
| B10 | 22.3 | 0.0226 | 1.02e+06 |
| B2 | 0.83 | 0.000965 | 1.17e+06 |
| B6 | 10.2 | 0.00718 | 702000 |

Biological target: T4, human SIRPα v5-Fc (SIRPα5 extracellular domain fused to human IGHG1_Fc) (human, UniProt P78324 31-373; P0DOX5 223-449 = IgG part)
T4 construct: as m38; also called V5 (e.g. SIRPα5)
Assay: BLI Octet, antigen-Fc on biosensor;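 for koff: antigen captured on the biosensor tip and then immersed in solutions of the test antibodies, which act as the analyte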

| Binder | Kd [nM] | koff [s⁻¹] | kon [M⁻¹ s⁻¹] |
| --- | --- | --- | --- |
| B1 | 4.75 | 0.00462 | 970000 |
| B2 | 7.73 | 0.00892 | 1.16e+06 |
| B6 | 0.66 | 0.00143 | 2.17e+06 |

Biological target: T5, human SIRPα v6-Fc (SIRPα6 extracellular domain fused to human IGHG1_Fc) (human, UniProt P78324 31-373; P0DOX5 223-449 = IgG part)
T5 construct: as m38; also called V6 (e.g. SIRPα6)
Assay: BLI Octet, antigen-Fc on biosensor;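 for koff: antigen captured on the biosensor tip and then immersed in solutions of the test antibodies, which act as the analyte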

| Binder | Kd [nM] | koff [s⁻¹] | kon [M⁻¹ s⁻¹] | binding result |
| --- | --- | --- | --- | --- |
| B1 | 1.56 | 0.00182 | 1.17e+06 |  |
| B2 | 2.71 | 0.00364 | 1.35e+06 |  |
| B3 | 54.9 |  |  |  |
| B4 |  |  |  | no binding |
| B6 | 12.2 | 0.0111 | 907000 |  |
| B8 | 11.9 |  |  |  |

Biological target: T6, mouse SIRPα-Fc (mouse)
T6 construct: a signal peptide may be part of the entry; also called Ms; Ms SIRPα-Fc
Assay: BLI Octet, antigen-Fc on biosensor

T6 sequence (chain, as listed by the source limits assumed): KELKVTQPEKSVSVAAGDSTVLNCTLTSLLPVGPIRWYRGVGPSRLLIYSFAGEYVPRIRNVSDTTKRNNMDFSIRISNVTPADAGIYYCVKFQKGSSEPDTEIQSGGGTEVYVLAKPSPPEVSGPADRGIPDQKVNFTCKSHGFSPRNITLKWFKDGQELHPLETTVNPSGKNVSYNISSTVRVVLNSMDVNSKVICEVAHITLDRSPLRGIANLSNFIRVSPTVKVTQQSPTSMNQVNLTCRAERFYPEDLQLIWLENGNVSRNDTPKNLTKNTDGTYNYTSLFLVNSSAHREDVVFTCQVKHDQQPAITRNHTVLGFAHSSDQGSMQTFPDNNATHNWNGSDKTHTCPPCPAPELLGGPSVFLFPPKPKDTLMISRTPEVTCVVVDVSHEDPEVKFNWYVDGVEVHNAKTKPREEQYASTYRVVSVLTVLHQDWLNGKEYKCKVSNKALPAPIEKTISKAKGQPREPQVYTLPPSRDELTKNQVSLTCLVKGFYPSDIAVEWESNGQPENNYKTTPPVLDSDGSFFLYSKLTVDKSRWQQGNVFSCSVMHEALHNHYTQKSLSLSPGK

| Binder | binding result | Kd [nM] |
| --- | --- | --- |
| B1 | no binding |  |
| B10 | no binding |  |
| B2 | no binding |  |
| B4 | no binding |  |
| B5 |  | 12.6 |
| B7 |  | 72.8 |
| B9 |  | 7.51 |

Biological target: T7, human SIRPα v4-Fc (SIRPα4 extracellular domain fused to human IGHG1_Fc) (human, UniProt P78324 31-373; P0DOX5 223-449 = IgG part)
T7 construct: as m38; also called V4 (e.g. SIRPα4)
Assay: BLI Octet, antigen-Fc on biosensor

| Binder | Kd [nM] | koff [s⁻¹] | kon [M⁻¹ s⁻¹] |
| --- | --- | --- | --- |
| B1 | 7.69 | 0.00777 | 1.01e+06 |
| B6 | 0.95 | 0.00165 | 1.74e+06 |

Biological target: T8, human SIRPβ-Fc (human)
T8 construct: a signal peptide may be part of the entry
Assay: BLI Octet, antigen-Fc on biosensor

| Binder | Kd [nM] | koff [s⁻¹] | kon [M⁻¹ s⁻¹] |
| --- | --- | --- | --- |
| B1 | 2.79 | 0.00284 | 1.02e+06 |
| B2 | 4.52 | 0.00544 | 1.21e+06 |
| B3 | 4.61 |  |  |
| B5 | 0.22 |  |  |
| B6 | 2.56 | 0.00391 | 1.53e+06 |
| B7 | 1 |  |  |
| B8 | 0.89 |  |  |
| B9 | 0.15 |  |  |

Biological target: T9, human SIRPα v2-Fc (SIRPα2 extracellular domain fused to human IGHG1_Fc) (human, UniProt P78324 31-373; P0DOX5 223-449 = IgG part)
T9 construct: as m38; also called V2 (e.g. SIRPα2); SIRPα V2:ESE
Assay: BLI Octet, antigen-Fc on biosensor

| Binder | Kd [nM] | koff [s⁻¹] | kon [M⁻¹ s⁻¹] | binding result |
| --- | --- | --- | --- | --- |
| B1 | 23 | 0.0185 | 810000 |  |
| B10 |  |  |  | no binding |
| B2 | 17.2 | 0.0172 | 1e+06 |  |
| B3 | 44.2 |  |  |  |
| B4 |  |  |  | no binding |
| B6 | 13.2 | 0.00956 | 730000 |  |
| B7 | 18.2 |  |  |  |
| B8 | 10.7 |  |  |  |
| B9 | 27.5 |  |  |  |

Biological target: T10, human SIRPα v1-Fc (SIRPα1 extracellular domain fused to human IGHG1_Fc) (human, UniProt P78324 31-373; P0DOX5 223-449 = IgG part)
T10 construct: also called V1 (e.g. SIRPα1); SIRPα V1: DLN
Assay: BLI Octet, antigen-Fc on biosensor

| Binder | Kd [nM] | koff [s⁻¹] | kon [M⁻¹ s⁻¹] |
| --- | --- | --- | --- |
| B1 | 0.714 | 0.000757 | 1.06e+06 |
| B2 | 1.65 | 0.00205 | 1.24e+06 |
| B5 | 0.2 |  |  |
| B6 | 0.15 | 0.000271 | 1.84e+06 |
| B7 | 0.45 |  |  |
| B9 | 0.165 |  |  |

Biological target: T11, cyno SIRPα-Fc (cynomolgus)
T11 construct: a signal peptide may be part of the entry
Assay: BLI Octet, antigen-Fc on biosensor

| Binder | Kd [nM] | koff [s⁻¹] | kon [M⁻¹ s⁻¹] |
| --- | --- | --- | --- |
| B1 | 18.8 | 0.0212 | 1.13e+06 |
| B2 | 14.9 | 0.0197 | 1.32e+06 |
| B5 | 7.95 |  |  |
| B6 | 4.59 | 0.00546 | 1.19e+06 |
| B7 | 18 |  |  |
| B8 | 19.3 |  |  |

Biological target: T1, cynomolgus SIRPα on cells
Assay: cell binding, Cyno SIRPα-CHO-K1 cells, 100 nM antibody

| Binder | fold increase over background (100 nM) [fold] |
| --- | --- |
| B1 | 2300 |
| B10 | 1020 |
| B6 | 2390 |

Biological target: T6, mouse SIRPα-Fc
Assay: BLI Octet, antigen-Fc on biosensor
Remark: another data set of the same source

| Binder | Kd [nM] |
| --- | --- |
| B11 | 2.2 |
| B12 | 0.39 |
| B13 | 1.02 |

Biological target: T12, human SIRPα on cells (human, UniProt P78324 31-504)
T12 construct: whole, on cells; also called human SIRPα-CHO; Hu SIRPα-CHO-K1
Assay: cell binding, Hu SIRPα-CHO-K1 cells, 100 nM antibody

| Binder | fold increase over background (100 nM) [fold] |
| --- | --- |
| B1 | 2650 |
| B10 | 1310 |
| B6 | 2100 |

— patent publication US20200102387A1 (CELGENE, published 2020)
